Data as given in article PMC6158212.

Molecular target: GP ectodomain of EBOV strain Mayinga-76 with a deleted mucin-like domain (EBOV GPΔMuc) (Zaire EBOV strain Mayinga-76)
Test: crystal structure

Substance: GP ectodomain of EBOV strain Mayinga-76 with a deleted mucin-like domain (EBOV GPΔMuc) (complex)
- stoichiometry N: 3
